Data taken from PMC10607609, “The Functionality of IbpA from Acholeplasma laidlawii Is Governed by Dynamic Rearrangement of Its Globular–Fibrillar Quaternary Structure” (International Journal of Molecular Sciences, 2023).

Experiments:
[1] = molecular target: AlDnaKST, recombinant C-terminally StrepII-tagged DnaK (HSP70) from Acholeplasma laidlawii (Acholeplasma laidlawii) (UniProt A9NFN8); assay: BLI; BLItz; biotinylated AlDnaKST or AlClpBST loaded on a streptavidin biosensor (2.0 nm); analyte in PBS pH 7.4; 300 s association, 300 s dissociation; BSA control subtracted
[2] = molecular target: full-length AlIbpA_(His6), small heat shock protein IbpA from Acholeplasma laidlawii (Acholeplasma laidlawii) (UniProt A9NFB2); assay: BLI; BLItz; biotinylated AlIbpA_(His6) loaded on a streptavidin biosensor (2.0 nm); analyte 10 µM in PBS pH 7.4; 300 s association, 300 s dissociation; BSA control subtracted
[3] = molecular target: T1, AlDnaKST, recombinant C-terminally StrepII-tagged DnaK (HSP70) from Acholeplasma laidlawii (Acholeplasma laidlawii, UniProt A9NFN8 1-610, biotin (EZ-Link NHS-PEG4-biotin) where it was the protein immobilised on the streptavidin biosensor); assay: as above; conditions: both partners purified
T1 construct: DnaK (HSP70) of Acholeplasma laidlawii, from a synthetic gene dnaK cloned in pET-28a(+); Plasmid pET-28a-AlDnaKST; source: E. coli BL21 (DE3), purified (Strep-tactin agarose); not shown: StrepII, C-terminal, kept

[4] = molecular target: T1, AlDnaKST, recombinant C-terminally …; assay: BLI; BLItz; biotinylated AlDnaKST or AlClpBST loaded on a streptavidin biosensor (2.0 nm); analyte in PBS pH 7.4; 300 s association, 300 s dissociation; BSA control subtracted; conditions: both partners purified
[5] = molecular target: AlClpBST, recombinant C-terminally StrepII-tagged ClpB (HSP100) from Acholeplasma laidlawii (Acholeplasma laidlawii); assay: as above

## AlClpBST, recombinant C-terminally StrepII-tagged ClpB (HSP100) from Acholeplasma laidlawii (natural protein)
[1]
  Kd: 20300 nM
[2]
  Kd: 1200 nM

## human insulin (ligand)
[2]
  Kd: 100 nM

## AlIbpA∆N12_(His6)–insulin complex, chemically cross-linked with glutaraldehyde (from UniProt A9NFB2 13-137)
[1]
  fold increase in KD against AlIbpA∆N12 (His6) alone: 2 fold

B1: full-length AlIbpA_(His6), small heat shock protein IbpA from Acholeplasma laidlawii (natural protein, UniProt A9NFB2 1-137, looked up)
chain: MLSLLNKNRSFFDDFFEDFNVLNPVTTSNLMRTDIKETQNGYSLSVELPGFKKEDVKVSLEDGYLTIEAHTSKNSETKDQATKYIRKERYEGTMKRSYYVGNLHLDEINGTFENGMLHIELPKETKKEPEKRYLELK
modifications: biotin (EZ-Link NHS-PEG4-biotin) where it was the protein immobilised on the streptavidin biosensor
notes: Forms globular and fibrillar oligomers; also called HSP20; sHSP; source: E. coli BL21 (DE3), purified (Ni-NTA agarose)
[3]
  Kd: 3100 nM
[4]
  Kd: 100 nM
[5]
  Kd: 200 nM

B2: AlIbpAΔN12_(His6), AlIbpA lacking 12 N-terminal amino acid residues (domain or fragment, Acholeplasma laidlawii, UniProt A9NFB2 13-137, looked up)
chain: DDFFEDFNVLNPVTTSNLMRTDIKETQNGYSLSVELPGFKKEDVKVSLEDGYLTIEAHTSKNSETKDQATKYIRKERYEGTMKRSYYVGNLHLDEINGTFENGMLHIELPKETKKEPEKRYLELK
notes: The limit 13 is worked out from 'removal of 12 N-terminal amino acid residuals'; Forms mostly fibrils; also called AlIbpA∆N12_(His6); AlIbpAN12_(His6); source: E. coli BL21 (DE3), purified (Ni-NTA agarose)
[4]
  fold decrease of binding affinity against full-length AlIbpA_(His6): 15 fold
